Experiment [1] has as its target T1, YFP-NEDD4, P46934.
T1 chain: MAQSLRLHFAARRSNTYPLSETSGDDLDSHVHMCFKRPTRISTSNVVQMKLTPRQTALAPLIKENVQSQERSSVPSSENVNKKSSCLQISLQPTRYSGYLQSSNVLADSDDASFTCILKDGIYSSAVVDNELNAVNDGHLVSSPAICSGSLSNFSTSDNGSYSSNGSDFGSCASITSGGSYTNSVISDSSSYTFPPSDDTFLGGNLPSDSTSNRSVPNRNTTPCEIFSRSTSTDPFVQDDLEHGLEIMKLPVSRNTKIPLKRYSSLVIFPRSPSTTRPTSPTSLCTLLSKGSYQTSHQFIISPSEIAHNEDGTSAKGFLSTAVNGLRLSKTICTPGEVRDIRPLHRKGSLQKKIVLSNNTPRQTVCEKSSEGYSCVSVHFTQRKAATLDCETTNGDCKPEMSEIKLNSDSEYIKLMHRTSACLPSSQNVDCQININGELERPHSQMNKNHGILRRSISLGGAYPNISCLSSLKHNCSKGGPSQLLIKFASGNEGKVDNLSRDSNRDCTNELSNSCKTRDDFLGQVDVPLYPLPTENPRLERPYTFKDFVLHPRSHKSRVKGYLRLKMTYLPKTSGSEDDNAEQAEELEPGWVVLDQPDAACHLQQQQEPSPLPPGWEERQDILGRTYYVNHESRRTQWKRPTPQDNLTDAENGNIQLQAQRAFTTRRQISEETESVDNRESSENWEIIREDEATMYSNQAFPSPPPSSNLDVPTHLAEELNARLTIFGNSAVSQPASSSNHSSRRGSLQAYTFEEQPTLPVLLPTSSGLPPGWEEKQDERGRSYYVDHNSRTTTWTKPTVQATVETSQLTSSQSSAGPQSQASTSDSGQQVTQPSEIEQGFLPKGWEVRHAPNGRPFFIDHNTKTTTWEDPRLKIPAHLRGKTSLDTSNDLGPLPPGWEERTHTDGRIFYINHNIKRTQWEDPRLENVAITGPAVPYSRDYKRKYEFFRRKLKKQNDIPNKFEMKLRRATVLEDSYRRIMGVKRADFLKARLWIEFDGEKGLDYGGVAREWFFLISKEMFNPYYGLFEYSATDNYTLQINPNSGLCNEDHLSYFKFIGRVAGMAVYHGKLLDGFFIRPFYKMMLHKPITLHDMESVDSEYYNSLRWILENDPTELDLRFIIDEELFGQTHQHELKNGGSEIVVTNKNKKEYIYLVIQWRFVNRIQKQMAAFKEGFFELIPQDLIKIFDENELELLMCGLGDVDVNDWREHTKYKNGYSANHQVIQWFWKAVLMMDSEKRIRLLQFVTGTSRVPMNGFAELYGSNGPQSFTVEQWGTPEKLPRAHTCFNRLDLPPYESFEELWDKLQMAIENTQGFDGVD
In words: bead binding assay, fluorescence microscopy of YFP-NEDD4 on ALFA-TXNIP beads. Conditions: chain shown with the change, value is the box-plot median, n = 40 beads, lysate of HEK293T cells over-expressing YFP-NEDD4, ctrl beads est. 20, parent: est. 38, read off a plot.

Experiment [2] deals with HECW2, endogenous in HEK293T, Q9P2P5. In words: co-immunoprecipitation of ALFA-TXNIP, label-free quantitative interactome (mass spectrometry). Conditions: chain shown with the change, immunoprecipitated from HEK293T cells, n = 3, read off a plot; for response (normalized abundance): abundances normalized to unspecific background binding to empty beads, scatter plot.
Experiment [3] concerns the target WWP2, endogenous in HEK293T, O00308. The experiment is described as above. Particulars: chain shown with the change, immunoprecipitated from HEK293T cells, n = 3, read off a plot; for response (normalized abundance): abundances normalized to unspecific background binding to empty beads, scatter plot.
In experiment [4] the target is ITCH, endogenous in HEK293T, Q96J02. Described as above. Particulars: chain shown with the change, immunoprecipitated from HEK293T cells, n = 3, read off a plot; for response (normalized abundance): abundances normalized to unspecific background binding to empty beads, scatter plot.
For experiment [5], the target named is T2, NEDD4L, endogenous in HEK293T, Q96PU5.
T2 chain: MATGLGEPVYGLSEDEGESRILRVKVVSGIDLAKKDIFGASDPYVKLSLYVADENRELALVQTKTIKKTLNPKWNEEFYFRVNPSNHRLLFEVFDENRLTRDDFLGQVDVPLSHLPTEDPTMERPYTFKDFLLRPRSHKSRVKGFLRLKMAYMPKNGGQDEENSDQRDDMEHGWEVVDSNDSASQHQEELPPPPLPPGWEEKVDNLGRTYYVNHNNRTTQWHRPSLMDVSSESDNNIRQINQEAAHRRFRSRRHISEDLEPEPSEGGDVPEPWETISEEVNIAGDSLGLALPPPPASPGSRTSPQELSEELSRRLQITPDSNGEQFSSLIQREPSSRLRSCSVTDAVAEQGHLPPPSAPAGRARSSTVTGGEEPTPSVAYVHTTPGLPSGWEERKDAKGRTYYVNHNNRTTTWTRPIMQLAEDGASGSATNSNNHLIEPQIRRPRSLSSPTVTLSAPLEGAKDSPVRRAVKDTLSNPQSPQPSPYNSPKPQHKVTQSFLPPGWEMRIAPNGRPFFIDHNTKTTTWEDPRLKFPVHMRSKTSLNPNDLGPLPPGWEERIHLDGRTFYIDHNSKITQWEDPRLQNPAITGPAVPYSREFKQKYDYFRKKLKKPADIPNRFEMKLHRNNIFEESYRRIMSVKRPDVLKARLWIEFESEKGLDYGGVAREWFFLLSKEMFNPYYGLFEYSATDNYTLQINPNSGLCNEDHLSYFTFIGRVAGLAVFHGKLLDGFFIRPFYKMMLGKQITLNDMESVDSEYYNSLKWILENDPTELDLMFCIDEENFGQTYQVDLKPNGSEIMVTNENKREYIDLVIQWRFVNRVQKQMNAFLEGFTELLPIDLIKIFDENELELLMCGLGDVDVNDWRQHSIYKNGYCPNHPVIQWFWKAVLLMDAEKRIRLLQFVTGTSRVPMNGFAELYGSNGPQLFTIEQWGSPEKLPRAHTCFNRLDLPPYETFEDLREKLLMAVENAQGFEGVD
Described as above. Particulars: chain shown with the change, immunoprecipitated from HEK293T cells, n = 3, read off a plot; for response: histogram, parent: est. 1.1e10.

Setting [6] is: abundances normalized to unspecific background binding to empty beads.

Sequence of ITCH, endogenous in HEK293T, Q96J02 (Q96J02 whole entry): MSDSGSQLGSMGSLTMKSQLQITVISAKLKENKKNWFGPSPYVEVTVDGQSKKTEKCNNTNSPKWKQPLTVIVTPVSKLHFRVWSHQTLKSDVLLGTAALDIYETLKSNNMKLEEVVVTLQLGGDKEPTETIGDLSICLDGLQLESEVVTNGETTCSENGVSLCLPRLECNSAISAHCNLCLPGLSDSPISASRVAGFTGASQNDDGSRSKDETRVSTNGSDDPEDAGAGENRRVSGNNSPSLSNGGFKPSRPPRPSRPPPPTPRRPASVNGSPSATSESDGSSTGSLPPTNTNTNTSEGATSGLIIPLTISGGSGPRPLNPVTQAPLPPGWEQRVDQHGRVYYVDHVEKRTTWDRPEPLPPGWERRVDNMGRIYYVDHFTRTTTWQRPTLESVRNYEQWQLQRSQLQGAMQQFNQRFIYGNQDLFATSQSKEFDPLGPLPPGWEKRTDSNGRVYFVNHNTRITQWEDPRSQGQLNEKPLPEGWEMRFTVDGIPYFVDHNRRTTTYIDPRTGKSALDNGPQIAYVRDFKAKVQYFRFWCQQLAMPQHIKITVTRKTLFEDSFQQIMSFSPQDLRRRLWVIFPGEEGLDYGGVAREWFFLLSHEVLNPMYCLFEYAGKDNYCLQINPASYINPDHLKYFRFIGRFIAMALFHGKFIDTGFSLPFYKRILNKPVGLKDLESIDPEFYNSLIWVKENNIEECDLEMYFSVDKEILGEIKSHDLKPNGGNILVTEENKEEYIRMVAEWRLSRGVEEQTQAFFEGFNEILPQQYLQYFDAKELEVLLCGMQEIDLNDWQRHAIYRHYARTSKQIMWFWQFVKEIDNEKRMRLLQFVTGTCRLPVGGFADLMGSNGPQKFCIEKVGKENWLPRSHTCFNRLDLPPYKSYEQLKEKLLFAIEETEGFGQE
Sequence of WWP2, endogenous in HEK293T, O00308 (O00308 whole entry): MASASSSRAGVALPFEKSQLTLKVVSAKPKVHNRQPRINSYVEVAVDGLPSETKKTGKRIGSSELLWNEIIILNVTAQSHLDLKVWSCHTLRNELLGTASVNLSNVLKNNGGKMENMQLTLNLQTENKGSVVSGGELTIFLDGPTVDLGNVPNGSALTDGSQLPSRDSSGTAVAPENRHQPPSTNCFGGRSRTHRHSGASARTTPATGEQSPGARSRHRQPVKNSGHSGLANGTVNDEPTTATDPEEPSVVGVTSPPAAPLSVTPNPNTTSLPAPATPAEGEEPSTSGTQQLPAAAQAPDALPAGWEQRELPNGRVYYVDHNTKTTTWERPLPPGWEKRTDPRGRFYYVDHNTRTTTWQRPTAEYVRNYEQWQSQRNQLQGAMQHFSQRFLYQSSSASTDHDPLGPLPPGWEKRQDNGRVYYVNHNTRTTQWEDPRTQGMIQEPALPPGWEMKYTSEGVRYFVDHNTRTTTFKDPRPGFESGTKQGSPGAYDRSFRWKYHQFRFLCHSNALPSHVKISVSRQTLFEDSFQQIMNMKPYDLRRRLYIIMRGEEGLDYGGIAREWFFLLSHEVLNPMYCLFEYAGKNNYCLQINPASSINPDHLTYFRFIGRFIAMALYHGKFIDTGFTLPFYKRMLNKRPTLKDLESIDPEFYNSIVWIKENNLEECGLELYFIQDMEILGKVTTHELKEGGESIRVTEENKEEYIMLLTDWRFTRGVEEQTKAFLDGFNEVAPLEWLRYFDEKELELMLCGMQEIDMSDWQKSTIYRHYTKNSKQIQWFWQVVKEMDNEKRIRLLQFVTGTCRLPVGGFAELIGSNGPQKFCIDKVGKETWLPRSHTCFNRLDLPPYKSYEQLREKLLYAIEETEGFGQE
Sequence of HECW2, endogenous in HEK293T, Q9P2P5 (Q9P2P5 whole entry): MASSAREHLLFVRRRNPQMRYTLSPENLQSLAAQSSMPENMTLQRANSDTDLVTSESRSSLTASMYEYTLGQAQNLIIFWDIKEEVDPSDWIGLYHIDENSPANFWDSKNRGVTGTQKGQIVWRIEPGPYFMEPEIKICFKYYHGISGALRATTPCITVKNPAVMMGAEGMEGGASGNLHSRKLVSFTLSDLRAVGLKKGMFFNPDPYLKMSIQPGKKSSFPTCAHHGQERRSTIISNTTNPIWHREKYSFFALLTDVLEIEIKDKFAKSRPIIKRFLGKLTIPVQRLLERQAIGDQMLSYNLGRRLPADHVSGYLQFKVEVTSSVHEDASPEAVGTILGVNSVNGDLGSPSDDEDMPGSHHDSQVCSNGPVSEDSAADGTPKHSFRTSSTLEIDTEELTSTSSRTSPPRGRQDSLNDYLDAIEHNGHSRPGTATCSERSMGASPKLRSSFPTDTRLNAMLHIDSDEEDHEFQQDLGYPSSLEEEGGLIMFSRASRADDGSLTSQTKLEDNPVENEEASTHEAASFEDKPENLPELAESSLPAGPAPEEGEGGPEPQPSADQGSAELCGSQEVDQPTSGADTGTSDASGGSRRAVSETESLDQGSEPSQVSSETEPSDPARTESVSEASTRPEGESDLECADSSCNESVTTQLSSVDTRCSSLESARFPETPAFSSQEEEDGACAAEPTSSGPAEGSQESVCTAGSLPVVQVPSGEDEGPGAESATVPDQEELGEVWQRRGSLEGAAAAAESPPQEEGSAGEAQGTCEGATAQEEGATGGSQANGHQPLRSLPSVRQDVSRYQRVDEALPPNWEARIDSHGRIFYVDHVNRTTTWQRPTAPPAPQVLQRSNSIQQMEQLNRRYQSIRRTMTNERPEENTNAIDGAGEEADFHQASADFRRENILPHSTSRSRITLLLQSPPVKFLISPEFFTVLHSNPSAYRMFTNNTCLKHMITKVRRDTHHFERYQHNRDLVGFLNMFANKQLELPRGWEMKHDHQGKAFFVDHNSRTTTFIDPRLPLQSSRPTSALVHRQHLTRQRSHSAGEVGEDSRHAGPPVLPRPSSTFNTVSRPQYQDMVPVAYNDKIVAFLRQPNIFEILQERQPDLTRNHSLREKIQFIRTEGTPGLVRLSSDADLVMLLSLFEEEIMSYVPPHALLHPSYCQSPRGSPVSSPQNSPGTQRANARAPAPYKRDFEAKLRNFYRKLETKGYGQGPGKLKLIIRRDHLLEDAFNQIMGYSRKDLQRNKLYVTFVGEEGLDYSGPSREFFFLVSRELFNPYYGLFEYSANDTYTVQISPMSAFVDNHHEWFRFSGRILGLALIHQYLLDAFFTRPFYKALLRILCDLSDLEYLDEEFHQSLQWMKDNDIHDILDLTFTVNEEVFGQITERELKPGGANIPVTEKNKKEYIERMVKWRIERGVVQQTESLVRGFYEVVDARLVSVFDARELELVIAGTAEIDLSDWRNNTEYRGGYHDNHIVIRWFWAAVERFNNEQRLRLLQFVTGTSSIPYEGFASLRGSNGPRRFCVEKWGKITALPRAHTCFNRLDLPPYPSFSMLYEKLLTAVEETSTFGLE

B1: ALFA-tagged TXNIP (thioredoxin interacting protein), expressed in HEK293T, Q9H3M7 PPCY331AACA (protein)
chain: MVMFKKIKSFEVVFNDPEKVYGSGEKVAGRVIVEVCEVTRVKAVRILACGVAKVLWMQGSQQCKQTSEYLRYEDTLLLEDQPTGENEMVIMRPGNKYEYKFGFELPQGPLGTSFKGKYGCVDYWVKAFLDRPSQPTQETKKNFEVVDLVDVNTPDLMAPVSAKKEKKVSCMFIPDGRVSVSARIDRKGFCEGDEISIHADFENTCSRIVVPKAAIVARHTYLANGQTKVLTQKLSSVRGNHIISGTCASWRGKSLRVQKIRPSILGCNILRVEYSLLIYVSVPGSKKVILDLPLVIGSRSGLSSRTSSMASRTSSEMSWVDLNIPDTPEAAACAMDVIPEDHRLESPTTPLLDDMDGSQDSPIFMYAPEFKFMPPPTYTEVDPCILNNNVQ
In the case of B1, the response is 35 A.U in experiment [1] (printed p=0.2365 against ALFA-TXNIP) and 6.6e+09 abundance in experiment [5] (setting [6]). The response (normalized abundance) in experiment [2] (parent: est. 1.0e8) was found to be 1.3e+06; in experiment [3] (parent: est. 1.4e9), 4.5e+08; in experiment [4] (parent: est. 3.0e8), 1.5e+08. In addition, the other: log2 PPxY331/WT in experiment [2] was -4.1 log2; in experiment [3], -1.8 log2; in experiment [4] it was -1.1 log2; in experiment [5], -0.7 log2.

B2: ALFA-tagged TXNIP (thioredoxin interacting protein), expressed in HEK293T, Q9H3M7 PPCY331AACA; PPTY375AATA (protein)
chain: MVMFKKIKSFEVVFNDPEKVYGSGEKVAGRVIVEVCEVTRVKAVRILACGVAKVLWMQGSQQCKQTSEYLRYEDTLLLEDQPTGENEMVIMRPGNKYEYKFGFELPQGPLGTSFKGKYGCVDYWVKAFLDRPSQPTQETKKNFEVVDLVDVNTPDLMAPVSAKKEKKVSCMFIPDGRVSVSARIDRKGFCEGDEISIHADFENTCSRIVVPKAAIVARHTYLANGQTKVLTQKLSSVRGNHIISGTCASWRGKSLRVQKIRPSILGCNILRVEYSLLIYVSVPGSKKVILDLPLVIGSRSGLSSRTSSMASRTSSEMSWVDLNIPDTPEAAACAMDVIPEDHRLESPTTPLLDDMDGSQDSPIFMYAPEFKFMPAATATEVDPCILNNNVQ
In the case of B2, the values for the response in experiment [1] (printed p<0.0001 against ALFA-TXNIP) and in experiment [5] (setting [6]) were 19 A.U and 3.8e+09 abundance, respectively. Further, the response (normalized abundance) in experiment [2] (parent: est. 1.3e8) turned out to be 80000; in experiment [3] (parent: est. 1.3e9), 800000; in experiment [4] (parent: est. 3.5e8) it was 150000; in experiment [5] (abundances normalized to unspecific background binding to empty beads, scatter plot, parent: est. 1.0e10), 4e+09. Further, the other: log2 PPxY/WT in experiment [4] (volcano plot) is -4.5 log2; in experiment [5] (volcano plot), -1.5 log2.

(Values after PMC12669767.)
